According to US20110150870A1 (UNITED STATES OF AMERICA AS REPRESENTED BY TH, published 2011):
Like-named read-outs stand apart in the source and are kept apart here.

T1: human Fc-NKG2D (human, UniProt P26718 78-216)
T1 construct: range 78-216; Bought from R&D Systems: a recombinant fusion protein of human Fc and the extracellular domain (amino acids 78-216) of human NKG2D; also called human NKG2D (immobilized); not shown: human Fc
T1 sequence (looked up): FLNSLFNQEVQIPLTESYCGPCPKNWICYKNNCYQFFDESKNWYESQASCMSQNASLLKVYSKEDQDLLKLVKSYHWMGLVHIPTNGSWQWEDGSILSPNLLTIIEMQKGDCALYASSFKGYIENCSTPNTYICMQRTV

T2: human CD23 (human, UniProt P06734 150-321, limits assumed)
T2 construct: Bought
T2 sequence (looked up): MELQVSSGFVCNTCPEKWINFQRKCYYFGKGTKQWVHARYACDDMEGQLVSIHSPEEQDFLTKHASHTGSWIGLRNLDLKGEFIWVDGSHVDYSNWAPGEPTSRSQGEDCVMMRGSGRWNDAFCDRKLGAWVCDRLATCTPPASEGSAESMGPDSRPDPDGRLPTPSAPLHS

T3: mouse Fc-NKG2D (mouse, UniProt O54709 94-232, limits assumed)
T3 construct: Bought from R&D Systems; also called mouse NKG2D; not shown: Fc part
T3 sequence (looked up): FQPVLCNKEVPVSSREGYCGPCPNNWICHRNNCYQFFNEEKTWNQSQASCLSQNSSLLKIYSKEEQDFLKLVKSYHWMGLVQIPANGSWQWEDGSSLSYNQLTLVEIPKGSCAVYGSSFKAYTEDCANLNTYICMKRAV

T4: human CD22-Fc (human, UniProt P20273 20-687)
T4 construct: Bought from R&D Systems; not shown: Fc part
T4 sequence (looked up): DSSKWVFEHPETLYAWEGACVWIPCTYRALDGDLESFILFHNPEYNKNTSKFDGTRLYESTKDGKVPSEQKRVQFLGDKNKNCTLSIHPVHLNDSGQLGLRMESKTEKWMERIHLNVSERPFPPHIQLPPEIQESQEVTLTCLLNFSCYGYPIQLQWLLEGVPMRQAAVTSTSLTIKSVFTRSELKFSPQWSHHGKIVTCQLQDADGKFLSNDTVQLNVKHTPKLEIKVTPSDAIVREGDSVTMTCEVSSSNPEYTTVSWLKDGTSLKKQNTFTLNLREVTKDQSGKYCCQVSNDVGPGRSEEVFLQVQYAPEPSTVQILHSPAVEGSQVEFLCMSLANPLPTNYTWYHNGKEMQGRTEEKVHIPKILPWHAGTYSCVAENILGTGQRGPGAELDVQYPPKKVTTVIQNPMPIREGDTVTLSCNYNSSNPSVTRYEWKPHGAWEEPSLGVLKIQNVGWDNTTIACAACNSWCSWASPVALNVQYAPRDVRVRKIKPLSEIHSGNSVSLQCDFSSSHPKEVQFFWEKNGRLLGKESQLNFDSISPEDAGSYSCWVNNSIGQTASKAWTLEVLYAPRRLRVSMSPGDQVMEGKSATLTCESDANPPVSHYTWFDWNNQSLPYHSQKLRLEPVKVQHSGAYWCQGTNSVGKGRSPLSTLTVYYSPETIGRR

T5: human MICB-Fc (human, UniProt Q29980 23-298, limits assumed)
T5 construct: Bought from R&D Systems; also called recombinant human MICB-Fc; not shown: Fc part (detected with anti-human Fc)
T5 sequence (looked up): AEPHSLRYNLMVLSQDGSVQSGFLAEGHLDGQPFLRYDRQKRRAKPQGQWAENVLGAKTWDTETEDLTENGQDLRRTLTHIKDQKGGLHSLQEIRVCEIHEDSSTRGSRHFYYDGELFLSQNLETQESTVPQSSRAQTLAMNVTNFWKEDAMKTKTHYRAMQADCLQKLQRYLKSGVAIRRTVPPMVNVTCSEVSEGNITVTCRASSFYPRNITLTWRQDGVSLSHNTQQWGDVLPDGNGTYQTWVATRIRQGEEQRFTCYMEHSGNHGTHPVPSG

T6: human MICA-Fc (human, UniProt Q29983 24-307, limits assumed)
T6 construct: Bought from R&D Systems; also called recombinant human MICA-Fc; not shown: Fc part (detected with anti-human Fc)
T6 sequence (looked up): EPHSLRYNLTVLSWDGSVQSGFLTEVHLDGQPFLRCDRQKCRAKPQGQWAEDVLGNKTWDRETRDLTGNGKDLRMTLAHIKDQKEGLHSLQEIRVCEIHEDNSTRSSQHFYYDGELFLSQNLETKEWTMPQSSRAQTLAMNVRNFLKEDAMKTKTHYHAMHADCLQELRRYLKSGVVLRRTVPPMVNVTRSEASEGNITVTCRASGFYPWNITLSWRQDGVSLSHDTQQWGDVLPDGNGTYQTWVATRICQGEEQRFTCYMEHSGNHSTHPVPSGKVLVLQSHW

B1: human ULBP2-Fc (Fc fusion, UniProt Q9BZM5 26-217, looked up)
chain: GRADPHSLCYDITVIPKFRPGPRWCAVQGQVDEKTFLHYDCGNKTVTPVSPLGKKLNVTTAWKAQNPVLREVVDILTEQLRDIQLENYTPKEPLTLQARMSCEQKAEGHSSGSWQFSFDGQIFLLFDSEKRMWTTVHPGARKMKEKWENDKVVAMSFHYFSMGDCIGWLEDFLMGMDSTLEPSAGAPLAMSS
notes: Bought from R&D Systems; also called recombinant human ULBP2-Fc; not shown: Fc part (detected with anti-human Fc)
B2: human NKG2D, cell surface (receptor, UniProt P26718 1-216, looked up)
chain: MGWIRGRRSRHSWEMSEFHNYNLDLKKSDFSTRWQKQRCPVVKSKCRENASPFFFCCFIAVAMGIRFIIMVTIWSAVFLNSLFNQEVQIPLTESYCGPCPKNWICYKNNCYQFFDESKNWYESQASCMSQNASLLKVYSKEDQDLLKLVKSYHWMGLVHIPTNGSWQWEDGSILSPNLLTIIEMQKGDCALYASSFKGYIENCSTPNTYICMQRTV
notes: whole, on cells; also called cell surface human NKG2D

Key:
[1] = target: B2; assay: whole-cell ELISA on HEK 293F/human NKG2D, 100 ng ligand-Fc, detected with biotinylated goat anti-human Fc and streptavidin-HRP, absorbance at 405 nm [panel ULBP2]
[2] = target: T1, human Fc-NKG2D
[3] = target: T1, human Fc-NKG2D; remark: listed apart in the source
[4] = target: T2, human CD23; assay: ELISA, protein coated at 100 ng/well, Fab detected with goat anti-human Fab-HRP, absorbance at 405 nm
[5] = target: T3, mouse Fc-NKG2D; assay: as above
[6] = target: T7, BSA (bovine, UniProt P02769); assay: as above
T7 construct: coated on the ELISA plate; also called bovine serum albumin
T7 sequence (P02769 25-607 limits assumed): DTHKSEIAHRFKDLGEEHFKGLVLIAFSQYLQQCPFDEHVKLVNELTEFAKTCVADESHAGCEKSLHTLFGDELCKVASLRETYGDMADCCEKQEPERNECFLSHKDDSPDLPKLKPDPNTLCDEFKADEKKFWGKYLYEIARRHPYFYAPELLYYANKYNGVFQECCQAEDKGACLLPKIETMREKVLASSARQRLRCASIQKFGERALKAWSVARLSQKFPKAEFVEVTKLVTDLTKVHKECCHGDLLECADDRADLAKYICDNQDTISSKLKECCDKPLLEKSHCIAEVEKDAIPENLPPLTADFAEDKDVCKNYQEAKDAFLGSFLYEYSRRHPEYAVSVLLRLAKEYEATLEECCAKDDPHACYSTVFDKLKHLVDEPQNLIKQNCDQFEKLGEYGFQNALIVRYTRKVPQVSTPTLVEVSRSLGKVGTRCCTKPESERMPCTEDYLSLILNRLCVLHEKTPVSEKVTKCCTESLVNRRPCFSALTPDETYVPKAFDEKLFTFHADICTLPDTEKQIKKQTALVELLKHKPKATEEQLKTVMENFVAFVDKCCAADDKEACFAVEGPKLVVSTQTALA

[7] = target: B1; assay: as above
[8] = target: T4, human CD22-Fc; assay: as above
[9] = target: T1, human Fc-NKG2D; assay: SPR (BIAcore 2000), human Fc-NKG2D immobilized on chip
[10] = target: T1, human Fc-NKG2D; assay: SPR (BIAcore 2000), human Fc-NKG2D immobilized on chip; koff/kon
[11] = target: T1, human Fc-NKG2D; assay: SPR (BIAcore 2000), human Fc-NKG2D immobilized on chip; remark: listed apart in the source
[12] = target: T1, human Fc-NKG2D; assay: SPR (BIAcore 2000), human Fc-NKG2D immobilized on chip; bivalent IgG
[13] = target: T1, human Fc-NKG2D; assay: SPR (BIAcore 2000), human Fc-NKG2D immobilized on chip; bivalent binding (virtual affinity, avidity)
[14] = target: T5, human MICB-Fc; assay: whole-cell ELISA on HEK 293F/human NKG2D, 100 ng ligand-Fc, detected with biotinylated goat anti-human Fc and streptavidin-HRP, absorbance at 405 nm [panel MICB]
[15] = target: T6, human MICA-Fc; assay: whole-cell ELISA on HEK 293F/human NKG2D, 100 ng ligand-Fc, detected with biotinylated goat anti-human Fc and streptavidin-HRP, absorbance at 405 nm [panel MICA]

Row | Binder | binding result [4] | binding result [5] | binding result [6] | binding result [7] | binding result [8] | Kd [10] [nM] | koff [11] [s⁻¹] | kon [11] [M⁻¹ s⁻¹] | koff [12] [s⁻¹] | kon [12] [M⁻¹ s⁻¹] | Kd [13] [nM] | further results
1 | B1 | – | – | – | – | – | – | – | – | – | – | – | binding result [1]: binds
2 | KYK-2.0 Fab (Fab, V domains shown, Human Fab (lambda) with human constant domains and a C-terminal (His)6 tag, expressed in E. coli from pC3C-His and purified by IMAC) VH: QVQLVESGGGLVKPGGSLRLSCAASGFTFSSYGMHWVRQAPGKGLEWVAFIRYDGSNKYYADSVKGRFTISRDNSKNTKYLQMNSLRAEDTAVYYCAKDRGLGDGTYFDYWGQGTTVTVSS VL: QSALTQPASVSGSPGQSITISCSGSSSNIGNNAVNWYQQLPGKAPKLLIYYDDLLPSGVSDRFSGSKSGTSAFLAISGLQSEDEADYYCAAWDDSLNGPVFGGGTKLTVL | no binding (tested: not shown) | no binding (tested: not shown) | no binding (tested: not shown) | no binding (tested: not shown) | no binding (tested: not shown) | 5.8 | 0.0043 | 740000 | – | – | – | Kd [2]: 1.9 to 3 nM; koff [2]: 0.0012 s⁻¹; kon [2]: 450000 M⁻¹ s⁻¹; Kd [3]: 1.9 to 3 nM; koff [3]: 0.0018 s⁻¹; kon [3]: 890000 M⁻¹ s⁻¹; fold improvement in affinity (Kd) over KYK-1.0 Fab [9]: ~4.5 fold; fold slower dissociation compared to KYK-1.0 Fab [9]: ~8.5 fold
3 | KYK-2.0 IgG1 (antibody, V domains shown, It was biotinylated for flow cytometry on PBMC; also called KYK-2.0 IgG1λ; PIGG-KYK-2.0) VH: QVQLVESGGGLVKPGGSLRLSCAASGFTFSSYGMHWVRQAPGKGLEWVAFIRYDGSNKYYADSVKGRFTISRDNSKNTKYLQMNSLRAEDTAVYYCAKDRGLGDGTYFDYWGQGTTVTVSS VL: QSALTQPASVSGSPGQSITISCSGSSSNIGNNAVNWYQQLPGKAPKLLIYYDDLLPSGVSDRFSGSKSGTSAFLAISGLQSEDEADYYCAAWDDSLNGPVFGGGTKLTVL | – | – | – | – | – | – | – | – | 0.00012 | 320000 | 0.38 | –
4 | B2 | – | – | – | – | – | – | – | – | – | – | – | binding result [14]: binds; binding result [15]: binds
5 | KYK-1.0 Fab (Fab, V domains shown, Human Fab with human constant domains (lambda light chain) and a C-terminal (His)6 tag, expressed in E. coli from pC3C-His and purified by IMAC) VH: EVQLVESGGGVVQPGGSLRLSCAASGFTFSSYGMHWVRQAPGKGLEWVAFIRYDGSNKYYADSVKGRFTISRDNSKNTKYLQMNSLRAEDTAVYYCAKDRFGYYLDYWGQGTLVTVSS VL: QPVLTQPSSVSVAPGETARIPCGGDDIETKSVHWYQQKPGQAPVLVIYDDDDRPSGIPERFFGSNSGNTATLSISRVEAGDEADYYCQVWDDNNDEWVFGGGTQLTVL | no binding (tested: not shown) | no binding (tested: not shown) | no binding (tested: not shown) | no binding (tested: not shown) | no binding (tested: not shown) | 27 | 0.037 | 1.4e+06 | – | – | – | –
6 | KYK-1.0 IgG1 (antibody, V domains shown, Fully human IgG1 lambda; also called KYK-1.0 IgG1λ; PIGG-KYK-1.0) VH: EVQLVESGGGVVQPGGSLRLSCAASGFTFSSYGMHWVRQAPGKGLEWVAFIRYDGSNKYYADSVKGRFTISRDNSKNTKYLQMNSLRAEDTAVYYCAKDRFGYYLDYWGQGTLVTVSS VL: QPVLTQPSSVSVAPGETARIPCGGDDIETKSVHWYQQKPGQAPVLVIYDDDDRPSGIPERFFGSNSGNTATLSISRVEAGDEADYYCQVWDDNNDEWVFGGGTQLTVL | – | – | – | – | – | – | – | – | 0.00056 | 310000 | 1.8 | –
